Results published in US20230218776A1, “ANTI-NTB-A ANTIBODIES AND RELATED COMPOSITIONS AND METHODS” (SEAGEN INC., priority 2015, published 2023).
“Also recorded” adds a separate entry of the source. Read-outs that look alike come from different tables or passages of the source. Where a SMILES comes first, the peptide text is derived from it. [ ]: non-standard residue; d: D form. The star is where a group is joined. Dolaproine = CO[C@@H]([C@@H]1CCCN1)[C@@H](C)C(=O)O; Dil = CC[C@H](C)[C@H](NC)[C@@H](CC(=O)O)OC; X1 = C[C@@H](N*)[C@@H](O)c1ccccc1; NMeV = CN[C@H](C(=O)O)C(C)C

What was measured:
[1] = tested on: resting human B lymphocytes; assay: Cytotoxicity on resting human lymphocytes, Cell-Titer Glo, 96 hours; format: cell-based; details: for IC50: 96 hours; for ADC concentration with cytotoxic effect on resting B lymphocytes: resting human B lymphocytes, 96 hour cytotoxicity assay
Protocol: (§1) To assess the cytotoxic effects of anti-NTB-A ADCs on resting human T and B lymphocytes, purified cells were seeded into black 96-well assay plates. Cells were then treated with anti-NTB-A ADCs starting at 10 ug/mL titrated down 5-fold for a total of 8 dilution points. For free drug treatment, cells were dosed with either MMAE starting at 1,000 nM or free PBD dimer starting at 100 nM titrated down 5-fold for a total of 8 dilution points. Plates were incubated at 37° C., 5% CO2 for 96 hours then allowed to equilibrate to room temperature. An equal volume of Cell-Titer Glo reagent was added to each well and the plate was incubated an additional 30 minutes at room temperature. Plates were then read on a Perkin Elmer Envision plate reader. Dose effect curves and IC50 values were calculated using GraphPad Prism software.

[2] = tested on: resting human T lymphocytes; assay: as above; format: cell-based
Protocol: as §1

Raji cell line [3] = assay: ADCP with monocyte-derived macrophages; format: cell-based; details: dilution series starting at 2 μg/mL
Protocol: (§2) To assess NTB-A mediated ADCP activity, normal T lymphocytes or tumor cells were labeled with the red fluorescent membrane dye, PKH26, then labeled with antibody or ADC in a 5-point, 10-fold dilution series starting at 2 μg/mL. Cells were then incubated for 30 minutes on ice and washed twice with PBS. Cells were mixed with monocyte-derived macrophages for one hour at 37° C. The cell mixture was then stained with Alexa Fluor 488-conjugated murine anti-CD11b to label macrophages and analyzed by flow cytometry to detect PKH26+CD11b+ double-labeled fluorescent cells. Phagocytic activity was calculated as (percent PKH26+CD11b+)/(percent CD11b+cells) multiplied by one hundred.

WIL2-S cell line [4] = assay: ADCP with monocyte-derived macrophages; format: cell-based; details: dilution series starting at 2 μg/mL
Protocol: as §2

WIL2-S cell line [5] = assay: ADCC, chromium-51 release with NK effector cells; format: cell-based; details: NK effector to target 10:1, 4 hours
Protocol: Antibody-Dependent Cellular Cytotoxicity (ADCC) Activity Assay: ADCC cytotoxic activity was measured by chromium-51 release in which effector natural killer (NK) cells kill (lyse) target cells via binding to the antibody or ADC on the target cells. WIL2-S cells were labeled with chromium-51, bound with antibody (0.1 ng/mL-10 μg/mL), and then incubated with NK cells at an effector to target ratio of 10:1 for 4 hours at 37° C., 5% CO2. Supernatant was removed to a filter plate and chromium-51 counts were measured with a TopCount (Perkin Elmer, Waltham, Mass.). Data was expressed as a percentage of maximum specific cell lysis determined with a positive control of 1% TritonX-100-treated cells (Sigma, St. Louis, Mo.).

Raji cell line [6] = assay: Complement-dependent cytotoxicity (CDC), Sytox Green; format: cell-based; details: 0.02-50 μg/mL, human serum, 2 hours
Protocol: (§3) Complement-Dependent Cytotoxicity (CDC): Normal human T cells (All Cells, Alameda, Calif.) or cancer cell lines (ATCC, Manassas, Va.) were labelledlabeled with 5 μM Sytox Green (Life Technologies, Grand Island, N.Y.), then bound with serial a serial dose titrations of anti-human NTB-A h20F3 antibody or PBD dimer ADCies (0.02-50 μg/mL) in RPMI1640 media+1020% human serum (Complement Technology, Tyler, TX or Solomon Park Research Laboratories, Kirkland, Wash. Cells were incubated at 37° C., 5% CO2 for 2 hours, and fluorescence from lysed cells was measured with an Envision plate reader (Perkin Elmer, Waltham, Mass.). Data was expressed as a percentage of maximum cell lysis determined with a positive control of 1% TritonX-100-treated cells (Sigma, ST. Louis, Mo.).
(§4) Three cell types were used for analysis: normal human T cells, WIL2-S cells, and Raji cells. Expression of relevant receptors on each cell type is found in Table 7 and is indicated as number of receptor per cell.

WIL2-S cell line [7] = assay: as above; format: cell-based; details: 0.02-50 μg/mL, human serum, 2 hours
Protocol: as §3, §4

Normal human T cells [8] = assay: ADCP with monocyte-derived macrophages; format: cell-based; details: dilution series starting at 2 μg/mL
Protocol: as §2

Normal human T cells [9] = assay: ADCC, flow cytometry-based assay with NK effector cells; format: cell-based; details: NK effector to target 10:1, 4 hours
Protocol: A flow cytometry-based assay was used to measure ADCC activity on normal human T cells. PKH2-labeled normal human T cell targets were bound with titrations of antibody (0.1 ng/mL-10 μg/mL) and then incubated with effector NK cells at an effector to target ratio of 10:1 for 4 hours at 37° C., 5% CO2. Viability was determined by 7-AAD incorporation as measured on the FACsCalibur flow cytometer (BD BioSciences, San Jose, Calif.).

Normal human T cells [10] = assay: Complement-dependent cytotoxicity (CDC), Sytox Green; format: cell-based; details: 0.02-50 μg/mL, human serum, 2 hours
Protocol: as §3, §4

cynomolgus-NTB-A = assay: Binding to 293-F17 cells overexpressing cynomolgus-NTB-A, flow cytometry; details: 293-F17/cynomolgus-NTB-A cells; 20 μg/mL antibody
Chain of cynomolgus-NTB-A (as listed by the source): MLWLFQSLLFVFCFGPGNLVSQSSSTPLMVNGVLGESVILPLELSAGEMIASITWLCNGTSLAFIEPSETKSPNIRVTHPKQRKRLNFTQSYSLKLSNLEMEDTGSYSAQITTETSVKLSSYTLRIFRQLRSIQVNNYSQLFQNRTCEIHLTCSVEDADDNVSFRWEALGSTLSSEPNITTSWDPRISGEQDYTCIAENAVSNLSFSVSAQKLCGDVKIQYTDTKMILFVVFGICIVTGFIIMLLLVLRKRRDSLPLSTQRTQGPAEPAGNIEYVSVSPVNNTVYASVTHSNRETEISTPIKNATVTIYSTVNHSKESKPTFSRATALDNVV
Protocol: (§5) Dose titrations of the anti-human NTB-A antibodies conjugated to Alexa Fluor 647 (, h20F3_HDLD-AF647) were used to generate saturation binding curves. Antigen positive Ramos cells were plated at 1×10^5 cells per well in a 96 well V-bottom plate (Thermo Scientific, Rochester, N.Y.). Three-fold serial dilutions of 2× concentrated antibodies were prepared in FACs buffer (PBS+2% fetal bovine serum) and were added to the cells in duplicate. The antibody solutions were incubated with cells for 1 hour on ice, protected from light. The cells were washed twice with FACs buffer and analyzed on the LSRII flow cytometer (BD BioSciences, San Jose, Calif.). KD values were determined with GraphPad Prism software (La Jolla, Calif.). Anti-human NTB-A antibodies h20F3_HDLD and chimeric 20F3 were tested for binding to 293-F17 cells overexpressing cynomolgus-NTB-A. 293-F17/cynomolgus-NTB-A cells were plated at 5×10^5 cells/well in FACS buffer (PBS+2% fetal bovine serum+0.02% azide) and incubated with 20 μg/mL antibody for 30 minutes on ice. The cells were washed twice and stained with 30 μg/mL goat anti-human IgG-PE (Jackson ImmunoResearch, West Grove, Pa.) for 30 minutes, on ice and protected from light. Cells were again washed twice with FACs buffer. Stained cells were analyzed on the FACs Calibur flow cytometer (BD BioSciences, San Jose, Calif.).

human NTB-A = biological target: T1, human NTB-A (Homo sapiens, UniProt Q96DU3); assay: Saturation binding (Kd) of AF647-labelled antibody on Ramos cells; details: 1 hour on ice
T1 construct: endogenous in cells; host or cells: Ramos cells
T1 sequence (Q96DU3 22-332): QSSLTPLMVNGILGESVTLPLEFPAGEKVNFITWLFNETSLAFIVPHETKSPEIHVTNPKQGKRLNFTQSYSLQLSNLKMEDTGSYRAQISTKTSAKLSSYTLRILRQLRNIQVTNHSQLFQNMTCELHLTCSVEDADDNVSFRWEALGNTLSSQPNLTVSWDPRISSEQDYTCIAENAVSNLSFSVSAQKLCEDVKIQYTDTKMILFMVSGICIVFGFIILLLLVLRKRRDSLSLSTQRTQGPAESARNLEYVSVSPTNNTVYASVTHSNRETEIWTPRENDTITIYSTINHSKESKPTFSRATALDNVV
Protocol: as §5

[11] = Donor 1, B cell, NTB-A receptor # 6,811
[12] = Donor 2, B cell, NTB-A receptor # 11,037
[13] = Donor 3, B cell, NTB-A receptor # 8,771
[14] = Donor 4, T cell, NTB-A receptor # 5,547
[15] = Donor 5, T cell, NTB-A receptor # 7,979
[16] = Donor 6, T cell, NTB-A receptor # 5,522

CC[C@H](C)[C@@H]([C@@H](CC(=O)N1CCC[C@H]1[C@H](OC)[C@@H](C)C(=O)N[C@H](C)[C@@H](O)c1ccccc1)OC)N(C)C(=O)[C@@H](NC(=O)[C@@H](NC)C(C)C)C(C)C [Free MMAE, monomethyl auristatin E, reference compound] (H-[NMeV]V[Dil][Dolaproine]-X1)
IC50 ([1]; Donor 1, B cell, NTB-A receptor # 6,811, free drug, read-out: IC50): 3 nM | IC50 ([1]; Donor 2, B cell, NTB-A receptor # 11,037, free drug, read-out: IC50): 2 nM | IC50 ([1]; Donor 3, B cell, NTB-A receptor # 8,771, free drug, read-out: IC50): 5 nM | IC50 ([2]; Donor 4, T cell, NTB-A receptor # 5,547, free drug, read-out: IC50): > 1000 nM | IC50 ([2]; Donor 5, T cell, NTB-A receptor # 7,979, free drug, read-out: IC50): > 1000 nM | IC50 ([2]; Donor 6, T cell, NTB-A receptor # 5,522, free drug, read-out: IC50): > 1000 nM

Rituximab: anti-CD20 antibody control [reference compound]
ADCP Maximum % Phagocytosis (Raji cell line [3]): 57% | ADCP Maximum % Phagocytosis (WIL2-S cell line [4]): 56% | ADCC Maximum % Specific Cell Lysis (WIL2-S cell line [5]): 42 ± 6.0% | CDC Maximum % Specific Cell Lysis (Raji cell line [6]): 45 ± 5.7% | CDC Maximum % Specific Cell Lysis (WIL2-S cell line [7]): 66 ± 1.4%

Campath: anti-CD52 antibody control [reference compound]
ADCP Maximum % Phagocytosis (Normal human T cells [8]): 57% | ADCC Maximum % Specific Cell Lysis (Normal human T cells [9]): 60 ± 3.5% | CDC Maximum % Specific Cell Lysis (Normal human T cells [10]): 108 ± 5.2%

B1: c20F3-1910(2) (conjugate)
VH: QIQLVQSGPELKKPGETVKISCKASGYTFTNYGMNWVKQAPGKDLKWMGWINTYSGEPRYADDFKGRFAFSLEKSANTAYLQINNLKNEDMATYFCARDYGRWYFDVWGTGTTVTVSS
VL: QIVLSQSPAILSASPGEKVTMTCRASSSVSHMHWYQQKPGSSPKPWIYATSNLASGVPARFSGSGSGTSYSLTISRVEAEDAATYYCQQWSSTPRTFGGGTKLEIKR
IC50 [1, 11]: 1,468 ng/mL | IC50 [1, 12]: 1,270 ng/mL | IC50 [1, 13]: 3,421 ng/mL | ADC concentration with cytotoxic effect on resting B lymphocytes [1]: > 1,000 ng/mL | IC50 [2, 14]: >10,000 ng/mL | IC50 [2, 15]: >10,000 ng/mL | IC50 [2, 16]: >10,000 ng/mL

B2: chimeric: chimeric form of the 20F3 anti-NTB-A antibody (antibody, V domains shown)
VH: B1 VH
VL: B1 VL
Cyno binding (cynomolgus-NTB-A): positive

B3: c20F3-vcMMAE(4): chimeric 20F3 vcMMAE auristatin ADC, drug load 4 (conjugate)
VH: B1 VH
VL: B1 VL
modifications: non-natural residues
IC50 [1, 11]: >10,000 ng/mL | IC50 [1, 12]: >10,000 ng/mL | IC50 [1, 13]: >10,000 ng/mL | ADC concentration with cytotoxic effect on resting B lymphocytes [1]: no cytotoxic effect | IC50 [2, 14]: >10,000 ng/mL | IC50 [2, 15]: >10,000 ng/mL | IC50 [2, 16]: >10,000 ng/mL

B4: HDLD: humanized 20F3: HD (SEQ ID NO:8) with LD (SEQ ID NO:18); preferred variant (antibody, V domains shown)
VH: QIQLVQSGSELKKPGASVKVSCKASGYTFTNYGMNWVRQAPGQDLKWMGWINTYSGEPRYADDFKGRFVFSLDKSVNTAYLQISSLKAEDTAVYYCARDYGRWYFDVWGQGTTVTVSS
VL: QIVLSQSPATLSLSPGERATMSCRASSSVSHMHWYQQKPGQAPRPWIYATSNLASGVPARFSGSGSGTDYTLTISSLEPEDFAVYYCQQWSSTPRTFGGGTKVEIKR
modifications: mature heavy chain variable region of humanized 20F3 HD; mature light chain variable region of humanized 20F3 LD
notes: preferred variant
Kd (human NTB-A): ~2 nM | Cyno binding (cynomolgus-NTB-A): retained binding; also recorded: positive

B5: h20F3wt: humanized 20F3 HDLD antibody with wild-type IgG1 (antibody, V domains shown)
VH: B4 VH
VL: B4 VL
ADCC Maximum % Specific Cell Lysis (Normal human T cells [9]): 38 ± 0.8% | ADCC Maximum % Specific Cell Lysis (WIL2-S cell line [5]): 21 ± 0.6% | CDC Maximum % Specific Cell Lysis (Raji cell line [6]): 2.1 ± 0.6% | CDC Maximum % Specific Cell Lysis (WIL2-S cell line [7]): 0.0 ± 0.0% | CDC Maximum % Specific Cell Lysis (Normal human T cells [10]): 1.3 ± 2.8%
